The test system of one assay is HLA-DR4. As to conditions: cited from earlier work.
The subject of assay [1] is IVS T cells from vaccinated melanoma patients. The format is cell-based, human.
Assay [2] addresses purified HLA-DR4 (HLA-DRB1*0401) (human). In words: radioligand binding.

Results on 11 molecules are retold here after publication PMC3888030 (Journal of immunology (Baltimore, Md. : 1950), 2013).

Where two headings read alike, the source gives them in different places.

For PKYVKQNTLKLAT [HA307–319], the “affinity for HLA-DR4” value in the assay with HLA-DR4 is recorded as “high affinity”. Moreover, the “Background IFN-γ secretion by T cells stimulated with APC + control peptide” value is 213 pg/mL in assay [1] (Patient #2, 1 μM peptide stimulation); 208 pg/mL in assay [1] (Patient #2, 10 μM peptide stimulation); 187 pg/mL in assay [1] (Patient #4, 1 μM peptide stimulation); 191 pg/mL in assay [1] (Patient #4, 10 μM peptide stimulation); 346 pg/mL in assay [1] (Patient #5, 1 μM peptide stimulation); 388 pg/mL in assay [1] (Patient #5, 10 μM peptide stimulation). As for “MBP111–129: self peptide from myelin basic protein (PSESDELQTIQEDSAATSE; UniProt P02686 111-129, looked up, fragment)”, the “affinity for HLA-DR4” value in the assay on HLA-DR4 is “binds weakly”.

For orientation: IC50 means the midpoint of a concentration-inhibition curve. A higher IC50 goes with a need for much substance. As for WNRQLYPEWTEAARLD [gp100 44-59 APL Q56A], the IC50 in assay [2] was 276 nM. Consider WNRQLYAEWTEAQRLD [gp100 44-59 APL P50A], for which the IC50 in assay [2] was 189 nM. The IC50 values of the last two molecules are within 1.5-fold of each other. The molecule WNRQLYPEWVEAQRLD [gp100 44-59 APL T53V] returned a half-maximal inhibitory concentration (IC50) in assay [2] of 489 nM.

As for WNRQLYPAWTEAQRLD [gp100 44-59 APL E51A], the IC50 in assay [2] amounted to 199 nM. Still for that read-out and setting: in the case of WNRQFYPEWTEAQRLD [gp100 44-59 APL L48F] it was 280 nM; in that of WNRQLYPEWTTAQRLD [gp100 44-59 APL E54T], 104 nM.

WNRQLYPEATEAQRLD [gp100 44-59 APL W52A] gave a concentration for half-maximal inhibition (IC50) in assay [2] of 372 nM.

As for WNRQLYPEWTLAQRLD [gp100 44-59 APL E54L], the IC50 in assay [2] stood at 65 nM. On the same count and under the same terms, to WNRQLYPEWTEGQRLD [gp100 44-59 APL A55G] belongs 553 nM.
